The values that follow come from US20260184782A1.

The assay deals with human TIGIT-Fc (human) (UniProt Q495A1). Briefly: CD155 competition ELISA, single point.
human TIGIT-Fc (human), sequence (Q495A1 22-141 limits assumed): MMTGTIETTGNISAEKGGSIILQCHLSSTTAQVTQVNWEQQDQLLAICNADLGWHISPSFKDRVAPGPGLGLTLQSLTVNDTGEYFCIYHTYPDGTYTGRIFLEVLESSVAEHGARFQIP

B1: TIGIT-SC153 (Fc fusion)
VHH: EVQLVESGGGLVQPGGSLRLSCAASGNTFSGGFMGWFRQAPGKEREWVASVLRGGYTWYADSVKGRFTISADNSKNTAYLQMNSLKPEDTAVYYCARAGGCSGTSCYDGWFDPWGQGTLVTVSS
Turning to B1, the OD (450 nm) stood at 0.8 OD.
